According to PMC5643242 (The FEBS journal, 2017):
Like-named read-outs stand apart in the source and are kept apart here.

Key:
Assay in all cases: stopped-flow fluorescence
[1] = biological target: T1, Cdc42 GTPase (residues 1-179), loaded with mantGppNHp (human, UniProt P60953 1-179)
[2] = biological target: T1, Cdc42 GTPase (residues 1-179), loaded …; remark: listed apart in the source
[3] = biological target: T1, Cdc42 GTPase (residues 1-179), loaded …; remark: listed apart in the source
[4] = biological target: T1, Cdc42 GTPase (residues 1-179), loaded …; remark: listed apart in the source
[5] = biological target: T1, Cdc42 GTPase (residues 1-179), loaded …; remark: listed apart in the source

T1 sequence (P60953 1-179): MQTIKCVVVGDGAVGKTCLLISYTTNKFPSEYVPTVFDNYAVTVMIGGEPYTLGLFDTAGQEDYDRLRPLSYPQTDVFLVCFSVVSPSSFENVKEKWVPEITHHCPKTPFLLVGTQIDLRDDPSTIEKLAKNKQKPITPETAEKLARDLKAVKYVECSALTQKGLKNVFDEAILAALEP

kon [1]: 1.75e+07 M⁻¹ s⁻¹
kon [2]: 2.07e+07 M⁻¹ s⁻¹
kon [3]: 1.63e+07 M⁻¹ s⁻¹
koff [4]: 4.1 ± 1.7 s⁻¹
kon [4]: 1.2e+07 M⁻¹ s⁻¹
fold decrease of ka at 2 M urea against no urea [5]: 3.4 fold
B1: Wiskott-Aldrich Syndrome protein (WASP) GTPase binding domain (GBD) construct, residues 154-322 (domain or fragment, human, UniProt P42768 154-322, looked up)
chain: GDRRQLPPPPTPANEERRGGLPPLPLHPGGDQGGPPVGPLSLGLATVDIQNPDITSSRYRGLPAPGPSPADKKRSGKKKISKADIGAPSGFKHVSHVGWDPQNGFDVNNLDPDLRSLFSRAGISEAQLTDAETSKLIYDFIEDQGGLEAVRQEMRRQEPLPPPPPPSRG
